Reference: PMC3249085 (The Journal of Biological Chemistry, 2011)

Target: the molecule itself
Experiment: small angle neutron scattering

B1: outer membrane protein OmpF (receptor)
chain: AEIYNKDGNKVDLYGKAVGLHYFSKGNGENSYGGNGDMTYARLGFKGETQINSDLTGYGQWEYNFQGNNSEGADAQTGNKTRLAFAGLKYADVGSFDYGRNYGVVYDALGYTDMLPEFGGDTAYSDDFFVGRVGGVATYRNSNFFGLVDGLNFAVQYLGKNERDTARRSNGDGVGGSISYEYEGFGIVGAYGAADRTNLQEAQPLGNGKKAEQWATGLKYDANNIYLAANYGETRNATPITNKFTNTSGFANKTQDVLLVAQYQFDFGLRPSIAYTKSKAKDVEGIGDVDLVNYFEVGATYYFNKNMSTYVDYIINQIDSDNKLGVGSDDTVAVGIVYQF
modifications: partially deuterated (d-OmpF) in the SANS samples; hydrogenous or deuterated in the neutron reflection samples
- stoichiometry N: 3
